Columns and labels:
[1] = test system: HeLa Kyoto; assay: solubility in G1/S (NP-40 vs SDS abundance) (log2 ratio); higher = more soluble; conditions: cell cycle stage: G1/S
[2] = test system: HeLa Kyoto; assay: solubility change mitosis vs G1/S (difference of NP-40 vs SDS log2 ratios) (log2 ratio difference); higher = more soluble in mitosis
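For solubility change mitosis vs G1/S (difference of NP-40 vs SDS log2 ratios) in this document: synchronized HeLa Kyoto cells (double thymidine block for G1/S, nocodazole release for mitosis), protein amounts in NP-40 versus SDS lysates quantified by mass spectrometry, three biological replicates.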
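For solubility in G1/S (NP-40 vs SDS abundance) in this document: HeLa Kyoto cells arrested at G1/S by double thymidine block, proteins quantified by TMT10plex mass spectrometry in mild NP-40 versus SDS extracts, three biological replicates.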

Sequence	solubility in G1/S (log2) [1]	solubility change mitosis (log2) [2]
MQGSTRRMGVMTDVHRRFLQLLMTHGVLEEWDVKRLQTHCYKVHDRNATVDKLEDFINNINSVLESLYIEIKRGVTEDDGRPIYALVNLATTSISKMATDFAENELDLFRKALELIIDSETGFASSTNILNLVDQLKGKKMRKKEAEQVLQKFVQNKWLIEKEGEFTLHGRAILEMEQYIRETYPDAVKICNICHSLLIQGQSCETCGIRMHLPCVAKYFQSNAEPRCPHCNDYWPHEIPKVFDPEKERESGVLKSNKKSLRSRQH [NSMCE1]	0.0262	-0.0633
MQLEIQVALNFIISYLYNKLPRRRVNIFGEELERLLKKKYEGHWYPEKPYKGSGFRCIHIGEKVDPVIEQASKESGLDIDDVRGNLPQDLSVWIDPFEVSYQIGEKGPVKVLYVDDNNENGCELDKEIKNSFNPEAQVFMPISDPASSVSSSPSPPFGHSAAVSPTFMPRSTQPLTFTTATFAATKFGSTKMKNSGRSNKVARTSPINLGLNVNDLLKQKAISSSMHSLYGLGLGSQQQPQQQQQPAQPPPPPPPPQQQQQQKTSALSPNAKEFIFPNMQGQGSSTNGMFPGDSPLNLSPLQYSNAFDVFAAYGGLNEKSFVDGLNFSLNNMQYSNQQFQPVMAN [TOB1]	0.14	-0.114
MQLRKMQTVKKEQASLDASSNVDKMMVLNSALTEVSEDSTTGEELLLSEGSVGKNKSSACRRKREFIPDEKKDAMYWEKRRKNNEAAKRSREKRRLNDLVLENKLIALGEENATLKAELLSLKLKFGLISSTAYAQEIQKLSNSTAVYFQDYQTSKSNVSSFVDEHEPSMVSSSCISVIKHSPQSSLSDVSEVSSVEHTQESSVQGSCRSPENKFQIIKQEPMELESYTREPRDDRGSYTASIYQNYMGNSFSGYSHSPPLLQVNRSSSNSPRTSETDDGVVGKSSDGEDEQQVPKGPIHSPVELKHVHATVVKVPEVNSSALPHKLRIKAKAMQIKVEAFDNEFEATQKLSSPIDMTSKRHFELEKHSAPSMVHSSLTPFSVQVTNIQDWSLKSEHWHQKELSGKTQNSFKTGVVEMKDSGYKVSDPENLYLKQGIANLSAEVVSLKRLIATQPISASDSG [NFIL3]	0.00864	0.104
MQRAVPEGFGRRKLGSDMGNAERAPGSRSFGPVPTLLLLAAALLAVSDALGRPSEEDEELVVPELERAPGHGTTRLRLHAFDQQLDLELRPDSSFLAPGFTLQNVGRKSGSETPLPETDLAHCFYSGTVNGDPSSAAALSLCEGVRGAFYLLGEAYFIQPLPAASERLATAAPGEKPPAPLQFHLLRRNRQGDVGGTCGVVDDEPRPTGKAETEDEDEGTEGEDEGAQWSPQDPALQGVGQPTGTGSIRKKRFVSSHRYVETMLVADQSMAEFHGSGLKHYLLTLFSVAARLYKHPSIRNSVSLVVVKILVIHDEQKGPEVTSNAALTLRNFCNWQKQHNPPSDRDAEHYDTAILFTRQDLCGSQTCDTLGMADVGTVCDPSRSCSVIEDDGLQAAFTTAHELGHVFNMPHDDAKQCASLNGVNQDSHMMASMLSNLDHSQPWSPCSAYMITSFLDNGHGECLMDKPQNPIQLPGDLPGTSYDANRQCQFTFGEDSKHCPDAASTCSTLWCTGTSGGVLVCQTKHFPWADGTSCGEGKWCINGKCVNKTDRKHFDTPFHGSWGMWGPWGDCSRTCGGGVQYTMRECDNPVPKNGGKYCEGKRVRYRSCNLEDCPDNNGKTFREEQCEAHNEFSKASFGSGPAVEWIPKYAGVSPKDRCKLICQAKGIGYFFVLQPKVVDGTPCSPDSTSVCVQGQCVKAGCDRIIDSKKKFDKCGVCGGNGSTCKKISGSVTSAKPGYHDIITIPTGATNIEVKQRNQRGSRNNGSFLAIKAADGTYILNGDYTLSTLEQDIMYKGVVLRYSGSSAALERIRSFSPLKEPLTIQVLTVGNALRPKIKYTYFVKKKKESFNAIPTFSAWVIEEWGECSKSCELGWQRRLVECRDINGQPASECAKEVKPASTRPCADHPCPQWQLGEWSSCSKTCGKGYKKRSLKCLSHDGGVLSHESCDPLKKPKHFIDFCTMAECS [ADAMTS1]	-0.34	-0.192
MQRRSRGINTGLILLLSQIFHVGINNIPPVTLATLALNIWFFLNPQKPLYSSCLSVEKCYQQKDWQRLLLSPLHHADDWHLYFNMASMLWKGINLERRLGSRWFAYVITAFSVLTGVVYLLLQFAVAEFMDEPDFKRSCAVGFSGVLFALKVLNNHYCPGGFVNILGFPVPNRFACWVELVAIHLFSPGTSFAGHLAGILVGLMYTQGPLKKIMEACAGGFSSSVGYPGRQYYFNSSGSSGYQDYYPHGRPDHYEEAPRNYDTYTAGLSEEEQLERALQASLWDRGNTRNSPPPYGFHLSPEEMRRQRLHRFDSQ [RHBDD1]	-0.291	-0.0234
MRFAWTVLLLGPLQLCALVHCAPPAAGQQQPPREPPAAPGAWRQQIQWENNGQVFSLLSLGSQYQPQRRRDPGAAVPGAANASAQQPRTPILLIRDNRTAAARTRTAGSSGVTAGRPRPTARHWFQAGYSTSRAREAGASRAENQTAPGEVPALSNLRPPSRVDGMVGDDPYNPYKYSDDNPYYNYYDTYERPRPGGRYRPGYGTGYFQYGLPDLVADPYYIQASTYVQKMSMYNLRCAAEENCLASTAYRADVRDYDHRVLLRFPQRVKNQGTSDFLPSRPRYSWEWHSCHQHYHSMDEFSHYDLLDANTQRRVAEGHKASFCLEDTSCDYGYHRRFACTAHTQGLSPGCYDTYGADIDCQWIDITDVKPGNYILKVSVNPSYLVPESDYTNNVVRCDIRYTGHHAYASGCTISPY [LOX]	-0.354	0.257
MRGPSGALWLLLALRTVLGGMEVRWCATSDPEQHKCGNMSEAFREAGIQPSLLCVRGTSADHCVQLIAAQEADAITLDGGAIYEAGKEHGLKPVVGEVYDQEVGTSYYAVAVVRRSSHVTIDTLKGVKSCHTGINRTVGWNVPVGYLVESGRLSVMGCDVLKAVSDYFGGSCVPGAGETSYSESLCRLCRGDSSGEGVCDKSPLERYYDYSGAFRCLAEGAGDVAFVKHSTVLENTDGKTLPSWGQALLSQDFELLCRDGSRADVTEWRQCHLARVPAHAVVVRADTDGGLIFRLLNEGQRLFSHEGSSFQMFSSEAYGQKDLLFKDSTSELVPIATQTYEAWLGHEYLHAMKGLLCDPNRLPPYLRWCVLSTPEIQKCGDMAVAFRRQRLKPEIQCVSAKSPQHCMERIQAEQVDAVTLSGEDIYTAGKTYGLVPAAGEHYAPEDSSNSYYVVAVVRRDSSHAFTLDELRGKRSCHAGFGSPAGWDVPVGALIQRGFIRPKDCDVLTAVSEFFNASCVPVNNPKNYPSSLCALCVGDEQGRNKCVGNSQERYYGYRGAFRCLVENAGDVAFVRHTTVFDNTNGHNSEPWAAELRSEDYELLCPNGARAEVSQFAACNLAQIPPHAVMVRPDTNIFTVYGLLDKAQDLFGDDHNKNGFKMFDSSNYHGQDLLFKDATVRAVPVGEKTTYRGWLGLDYVAALEGMSSQQCSGAAAPAPGAPLLPLLLPALAARLLPPAL [MFI2]	-0.519	-0.0542
MRPKTFPATTYSGNSRQRLQEIREGLKQPSKSSVQGLPAGPNSDTSLDAKVLGSKDATRQQQQMRATPKFGPYQKALREIRYSLLPFANESGTSAAAEVNRQMLQELVNAGCDQEMAGRALKQTGSRSIEAALEYISKMGYLDPRNEQIVRVIKQTSPGKGLMPTPVTRRPSFEGTGDSFASYHQLSGTPYEGPSFGADGPTALEEMPRPYVDYLFPGVGPHGPGHQHQHPPKGYGASVEAAGAHFPLQGAHYGRPHLLVPGEPLGYGVQRSPSFQSKTPPETGGYASLPTKGQGGPPGAGLAFPPPAAGLYVPHPHHKQAGPAAHQLHVLGSRSQVFASDSPPQSLLTPSRNSLNVDLYELGSTSVQQWPAATLARRDSLQKPGLEAPPRAHVAFRPDCPVPSRTNSFNSHQPRPGPPGKAEPSLPAPNTVTAVTAAHILHPVKSVRVLRPEPQTAVGPSHPAWVPAPAPAPAPAPAPAAEGLDAKEEHALALGGAGAFPLDVEYGGPDRRCPPPPYPKHLLLRSKSEQYDLDSLCAGMEQSLRAGPNEPEGGDKSRKSAKGDKGGKDKKQIQTSPVPVRKNSRDEEKRESRIKSYSPYAFKFFMEQHVENVIKTYQQKVNRRLQLEQEMAKAGLCEAEQEQMRKILYQKESNYNRLKRAKMDKSMFVKIKTLGIGAFGEVCLACKVDTHALYAMKTLRKKDVLNRNQVAHVKAERDILAEADNEWVVKLYYSFQDKDSLYFVMDYIPGGDMMSLLIRMEVFPEHLARFYIAELTLAIESVHKMGFIHRDIKPDNILIDLDGHIKLTDFGLCTGFRWTHNSKYYQKGSHVRQDSMEPSDLWDDVSNCRCGDRLKTLEQRARKQHQRCLAHSLVGTPNYIAPEVLLRKGYTQLCDWWSVGVILFEMLVGQPPFLAPTPTETQLKVINWENTLHIPAQVKLSPEARDLITKLCCSADHRLGRNGADDLKAHPFFSAIDFSSDIRKQPAPYVPTISHPMDTSNFDPVDEESPWNDASEGSTKAWDTLTSPNNKHPEHAFYEFTFRRFFDDNGYPFRCPKPSGAEASQAESSDLESSDLVDQTEGCQPVYV [LATS2]	0.178	-0.0575
MRRKGRCHRGSAARHPSSPCSVKHSPTRETLTYAQAQRMVEIEIEGRLHRISIFDPLEIILEDDLTAQEMSECNSNKENSERPPVCLRTKRHKNNRVKKKNEALPSAHGTPASASALPEPKVRIVEYSPPSAPRRPPVYYKFIEKSAEELDNEVEYDMDEEDYAWLEIVNEKRKGDCVPAVSQSMFEFLMDRFEKESHCENQKQGEQQSLIDEDAVCCICMDGECQNSNVILFCDMCNLAVHQECYGVPYIPEGQWLCRHCLQSRARPADCVLCPNKGGAFKKTDDDRWGHVVCALWIPEVGFANTVFIEPIDGVRNIPPARWKLTCYLCKQKGVGACIQCHKANCYTAFHVTCAQKAGLYMKMEPVKELTGGGTTFSVRKTAYCDVHTPPGCTRRPLNIYGDVEMKNGVCRKESSVKTVRSTSKVRKKAKKAKKALAEPCAVLPTVCAPYIPPQRLNRIANQVAIQRKKQFVERAHSYWLLKRLSRNGAPLLRRLQSSLQSQRSSQQRENDEEMKAAKEKLKYWQRLRHDLERARLLIELLRKREKLKREQVKVEQVAMELRLTPLTVLLRSVLDQLQDKDPARIFAQPVSLKEVPDYLDHIKHPMDFATMRKRLEAQGYKNLHEFEEDFDLIIDNCMKYNARDTVFYRAAVRLRDQGGVVLRQARREVDSIGLEEASGMHLPERPAAAPRRPFSWEDVDRLLDPANRAHLGLEEQLRELLDMLDLTCAMKSSGSRSKRAKLLKKEIALLRNKLSQQHSQPLPTGPGLEGFEEDGAALGPEAGEEVLPRLETLLQPRKRSRSTCGDSEVEEESPGKRLDAGLTNGFGGARSEQEPGGGLGRKATPRRRCASESSISSSNSPLCDSSFNAPKCGRGKPALVRRHTLEDRSELISCIENGNYAKAARIAAEVGQSSMWISTDAAASVLEPLKVVWAKCSGYPSYPALIIDPKMPRVPGHHNGVTIPAPPLDVLKIGEHMQTKSDEKLFLVLFFDNKRSWQWLPKSKMVPLGIDETIDKLKMMEGRNSSIRKAVRIAFDRAMNHLSRVHGEPTSDLSDID [BRD1]	-0.879	0.194
MRRSRSSAAAKLRGQKRSGASGASAAPAASAAAALAPSATRTRRSASQAGSKSQAVEKPPSEKPRLRRSSPRAQEEGPGEPPPPELALLPPPPPPPPTPATPTSSASNLDLGEQRERWETFQKRQKLTSEGAAKLLLDTFEYQGLVKHTGGCHCGAVRFEVWASADLHIFDCNCSICKKKQNRHFIVPASRFKLLKGAEHITTYTFNTHKAQHTFCKRCGVQSFYTPRSNPGGFGIAPHCLDEGTVRSMVTEEFNGSDWEKAMKEHKTIKNMSKE [CENPV]	-2.01	0.822
